Results published in PMC11516053, “Genomic Amplification of TBC1D31 Promotes Hepatocellular Carcinoma Through Reducing the Rab22A‐Mediated Endolysosomal Trafficking and Degradation of EGFR” (Advanced Science, 2024).

Molecular target: T1, SFB-TBC1D31 (human, UniProt Q96DN5-1 1-1066)
T1 construct: In the SFB pull-down it was left on the streptavidin beads; in the GST pull-down it was eluted with biotin; source: HEK293T, transfected, purified (streptavidin-conjugated beads, eluted with biotin)
T1 sequence (looked up): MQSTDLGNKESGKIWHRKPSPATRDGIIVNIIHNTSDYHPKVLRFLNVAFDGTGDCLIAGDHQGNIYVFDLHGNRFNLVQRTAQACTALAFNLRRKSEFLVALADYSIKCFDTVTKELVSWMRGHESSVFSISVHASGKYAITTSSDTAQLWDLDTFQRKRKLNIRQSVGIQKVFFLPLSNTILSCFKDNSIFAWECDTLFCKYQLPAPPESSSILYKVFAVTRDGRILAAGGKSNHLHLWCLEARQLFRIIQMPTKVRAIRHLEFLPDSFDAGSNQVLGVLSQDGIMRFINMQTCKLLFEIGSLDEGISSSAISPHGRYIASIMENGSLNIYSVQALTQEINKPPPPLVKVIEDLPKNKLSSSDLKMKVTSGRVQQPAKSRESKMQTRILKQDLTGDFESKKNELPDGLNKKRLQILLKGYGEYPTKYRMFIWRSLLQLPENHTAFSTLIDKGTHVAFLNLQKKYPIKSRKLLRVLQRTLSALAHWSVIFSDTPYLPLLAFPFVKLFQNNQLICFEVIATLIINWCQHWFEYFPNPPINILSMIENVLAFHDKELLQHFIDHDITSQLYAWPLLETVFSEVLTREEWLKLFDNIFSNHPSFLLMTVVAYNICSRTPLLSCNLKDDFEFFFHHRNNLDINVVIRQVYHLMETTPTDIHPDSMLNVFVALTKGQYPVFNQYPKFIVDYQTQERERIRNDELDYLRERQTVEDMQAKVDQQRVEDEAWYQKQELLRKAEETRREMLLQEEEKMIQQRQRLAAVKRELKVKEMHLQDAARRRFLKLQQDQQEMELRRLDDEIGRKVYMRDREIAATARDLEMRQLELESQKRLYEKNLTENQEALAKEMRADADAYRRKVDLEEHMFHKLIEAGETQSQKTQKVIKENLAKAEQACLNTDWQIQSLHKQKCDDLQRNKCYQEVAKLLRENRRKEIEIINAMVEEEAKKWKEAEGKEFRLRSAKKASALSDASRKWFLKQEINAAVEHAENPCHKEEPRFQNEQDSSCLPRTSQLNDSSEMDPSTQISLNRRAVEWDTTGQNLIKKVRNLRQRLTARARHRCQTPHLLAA
Test: pull-down; GST pull-down in vitro: GST-Rab22A on Glutathione-Sepharose incubated with eluted SFB-TBC1D31 in NETN buffer, 3 h, 4 °C; detection by Flag antibody
Settings: both partners purified

B1: GST-Rab22A (natural protein, human, UniProt Q9UL26 1-194, looked up)
chain: MALRELKVCLLGDTGVGKSSIVWRFVEDSFDPNINPTIGASFMTKTVQYQNELHKFLIWDTAGQERFRALAPMYYRGSAAAIIVYDITKEETFSTLKNWVKELRQHGPPNIVVAIAGNKCDLIDVREVMERDAKDYADSIHAIFVETSAKNAININELFIEISRRIPSTDANLPSGGKGFKLRRQPSEPKRSCC
notes: On glutathione beads in the GST pull-down; eluted with reduced glutathione for the SFB pull-down; source: E. coli BL21, purified (Glutathione-Sepharose)
B1: binds.
